Reference: paper PMC10174515

Substrate: O=C(O)C(=O)O
Assay: purified protein
Conditions: pH 3.1, 37 °C, MBTH 0.11 mM, DMAB 1.6 mM, HRP 0.1 U/ml, potassium oxalate, concentrations up to 400 uM, substrate (product) inhibition data excluded

B1: barley oxalate oxidase (OxOx) (Hordeum vulgare) (protein)
chain: SDPDPLQDFCVADLDGKAVSVNGHTCKPMSEAGDDFLFSSKLTKAGNTSTPNGSAVTELDVAEWPGTNTLGVSMNRVDFAPGGTNPPHIHPRATEIGMVMKGELLVGILGSLDSGNKLYSRVVRAGETFVIPRGLMHFQFNVGKTEAYMVVSFNSQNPGIVFVPLTLFGSDPPIPTPVLTKALRVEAGVVELLKSKFAGGS
Q: For B1, which Km is on record?
A: The Km was 256 µM.
